In experiment [1] the target is T1, recombinant human LTBP3-proTGFβ1 complex (human, UniProt Q9NS15 44-1303; P01137 30-390, limits assumed). In words: cell-based or functional assay.
Experiment [2] concerns the target human GARP-proTGFβ1 complex presented on the cell surface (human, UniProt Q14392 20-662; P01137 30-390). Description: cell-based or functional assay.
The target in experiment [3] is human LRRC33-proTGFβ1 complex presented on the cell surface (human, UniProt Q86YC3 19-692; P01137 30-390). In words: cell-based or functional assay.
Experiment [4] has as its target T2, recombinant human LTBP1-proTGFβ1 complex (human, UniProt Q14766 347-1721; P01137 30-390). In words: cell-based or functional assay.
For experiment [5], the target named is T1, recombinant human LTBP3-proTGFβ1 complex. Description: MSD-SET; IgG4 from mammalian cells.
In experiment [6] the target is T3, recombinant human LRRC33-proTGFβ1 complex (human, UniProt Q86YC3 19-650; P01137 30-390, limits assumed).
T3 construct: Purified complex of the Octet and MSD-SET assays, biotinylated; also called hLRRC33; hLRRC33-proTGFβ1
Description: MSD-SET; IgG4 from mammalian cells.

Experiment [7] has as its target T2, recombinant human LTBP1-proTGFβ1 complex. In words: MSD-SET; IgG4 from mammalian cells.
Experiment [8] concerns the target T4, recombinant human GARP-proTGFβ1 complex (human, UniProt Q14392 20-627; P01137 30-390, limits assumed).
T4 construct: Purified complex of the Octet and MSD-SET assays, biotinylated; also called hGARP; hGARP-proTGFβ1
Description: MSD-SET; IgG4 from mammalian cells.

For experiment [9], the target named is T1, recombinant human LTBP3-proTGFβ1 complex. In words: Octet (BLI); IgG1 from yeast. For orientation: Biolayer interferometry detects binding as a change in optical thickness at a sensor tip.
The target of experiment [10] is T3, recombinant human LRRC33-proTGFβ1 …. Description: Octet (BLI); IgG1 from yeast.
The target in experiment [11] is T2, recombinant human LTBP1-proTGFβ1 complex. In words: Octet (BLI); IgG1 from yeast.
Experiment [12] has as its target T4, recombinant human GARP-proTGFβ1 complex. Description: Octet (BLI); IgG1 from yeast.

For orientation: Kd means a measure of binding affinity in units of concentration.

T1 sequence (Q9NS15 44-1303 limits assumed, chain 1 of 2): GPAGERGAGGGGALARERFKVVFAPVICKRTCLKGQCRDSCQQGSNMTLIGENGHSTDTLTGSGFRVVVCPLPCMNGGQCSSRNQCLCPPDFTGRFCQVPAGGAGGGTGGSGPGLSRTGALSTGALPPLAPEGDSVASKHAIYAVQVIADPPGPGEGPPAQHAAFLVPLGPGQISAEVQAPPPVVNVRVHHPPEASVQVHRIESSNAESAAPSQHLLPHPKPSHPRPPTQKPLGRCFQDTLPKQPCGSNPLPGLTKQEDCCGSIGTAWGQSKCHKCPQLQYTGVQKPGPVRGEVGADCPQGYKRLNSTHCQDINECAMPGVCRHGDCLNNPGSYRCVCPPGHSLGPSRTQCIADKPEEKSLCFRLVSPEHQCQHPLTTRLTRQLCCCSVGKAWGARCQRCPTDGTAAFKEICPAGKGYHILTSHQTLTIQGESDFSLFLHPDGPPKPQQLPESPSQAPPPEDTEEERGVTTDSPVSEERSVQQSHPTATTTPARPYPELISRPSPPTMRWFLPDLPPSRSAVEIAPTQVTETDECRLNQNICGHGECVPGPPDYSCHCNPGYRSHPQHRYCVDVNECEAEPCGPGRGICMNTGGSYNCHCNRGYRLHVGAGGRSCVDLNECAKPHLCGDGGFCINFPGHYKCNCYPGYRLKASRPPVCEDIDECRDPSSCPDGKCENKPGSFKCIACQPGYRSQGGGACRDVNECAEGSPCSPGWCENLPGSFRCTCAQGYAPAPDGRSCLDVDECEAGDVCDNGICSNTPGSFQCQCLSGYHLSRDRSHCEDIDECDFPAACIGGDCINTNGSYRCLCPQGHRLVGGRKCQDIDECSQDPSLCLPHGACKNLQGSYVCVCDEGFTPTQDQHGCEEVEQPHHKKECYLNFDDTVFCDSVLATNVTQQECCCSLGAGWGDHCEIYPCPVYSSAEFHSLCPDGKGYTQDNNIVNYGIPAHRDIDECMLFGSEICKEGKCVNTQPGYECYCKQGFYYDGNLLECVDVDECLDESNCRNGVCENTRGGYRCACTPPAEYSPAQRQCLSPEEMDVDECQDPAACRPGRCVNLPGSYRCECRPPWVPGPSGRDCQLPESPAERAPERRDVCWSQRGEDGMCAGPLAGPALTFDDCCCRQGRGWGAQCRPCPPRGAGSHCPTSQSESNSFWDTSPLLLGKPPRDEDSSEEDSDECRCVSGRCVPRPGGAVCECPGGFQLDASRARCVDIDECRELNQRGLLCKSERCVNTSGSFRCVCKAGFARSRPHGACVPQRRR
T1 sequence (P01137 30-390 limits assumed, chain 2 of 2): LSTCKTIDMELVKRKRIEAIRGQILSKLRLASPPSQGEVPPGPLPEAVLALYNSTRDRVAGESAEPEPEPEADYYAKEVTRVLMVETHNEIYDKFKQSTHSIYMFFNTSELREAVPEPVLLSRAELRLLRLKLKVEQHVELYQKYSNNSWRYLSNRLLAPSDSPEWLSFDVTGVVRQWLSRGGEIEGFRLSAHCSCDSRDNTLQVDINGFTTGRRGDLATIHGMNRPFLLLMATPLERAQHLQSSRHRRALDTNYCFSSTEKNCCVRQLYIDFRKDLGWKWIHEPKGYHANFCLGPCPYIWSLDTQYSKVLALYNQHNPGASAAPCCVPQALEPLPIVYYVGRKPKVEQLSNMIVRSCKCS
T2 sequence (Q14766 347-1721 limits assumed, chain 1 of 2): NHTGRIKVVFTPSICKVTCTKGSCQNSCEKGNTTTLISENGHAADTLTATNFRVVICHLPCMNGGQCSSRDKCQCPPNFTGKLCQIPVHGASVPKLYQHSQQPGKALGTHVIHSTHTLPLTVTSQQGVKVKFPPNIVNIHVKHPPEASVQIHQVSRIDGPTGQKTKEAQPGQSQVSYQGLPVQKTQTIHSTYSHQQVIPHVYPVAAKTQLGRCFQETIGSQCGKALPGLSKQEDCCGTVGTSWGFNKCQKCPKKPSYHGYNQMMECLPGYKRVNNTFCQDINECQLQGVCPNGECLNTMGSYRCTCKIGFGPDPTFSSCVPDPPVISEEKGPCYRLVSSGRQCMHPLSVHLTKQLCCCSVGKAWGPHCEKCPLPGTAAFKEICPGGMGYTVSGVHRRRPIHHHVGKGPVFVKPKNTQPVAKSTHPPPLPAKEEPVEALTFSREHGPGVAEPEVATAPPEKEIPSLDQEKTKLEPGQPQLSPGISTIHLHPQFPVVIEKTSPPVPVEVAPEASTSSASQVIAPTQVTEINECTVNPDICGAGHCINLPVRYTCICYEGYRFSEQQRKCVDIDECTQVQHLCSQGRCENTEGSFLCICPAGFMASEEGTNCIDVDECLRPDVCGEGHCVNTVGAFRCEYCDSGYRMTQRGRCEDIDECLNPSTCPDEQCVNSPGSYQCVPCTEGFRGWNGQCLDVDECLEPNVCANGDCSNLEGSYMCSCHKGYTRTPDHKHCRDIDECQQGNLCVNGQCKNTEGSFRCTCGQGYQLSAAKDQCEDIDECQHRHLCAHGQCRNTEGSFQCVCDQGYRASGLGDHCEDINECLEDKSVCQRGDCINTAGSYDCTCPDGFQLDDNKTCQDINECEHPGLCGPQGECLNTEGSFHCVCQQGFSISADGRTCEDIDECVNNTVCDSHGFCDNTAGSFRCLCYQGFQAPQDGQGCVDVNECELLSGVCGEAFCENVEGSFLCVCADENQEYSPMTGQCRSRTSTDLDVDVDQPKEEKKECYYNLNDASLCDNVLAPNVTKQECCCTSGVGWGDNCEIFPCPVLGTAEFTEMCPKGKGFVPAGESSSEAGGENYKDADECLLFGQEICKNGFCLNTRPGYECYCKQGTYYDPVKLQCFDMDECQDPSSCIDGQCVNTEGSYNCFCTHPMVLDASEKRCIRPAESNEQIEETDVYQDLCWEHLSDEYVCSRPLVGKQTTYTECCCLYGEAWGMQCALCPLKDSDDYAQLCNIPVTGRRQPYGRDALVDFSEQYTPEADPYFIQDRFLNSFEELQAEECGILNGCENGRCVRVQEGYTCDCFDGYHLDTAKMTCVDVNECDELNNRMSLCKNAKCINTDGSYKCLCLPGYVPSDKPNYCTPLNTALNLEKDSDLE
T2 sequence (P01137 30-390 limits assumed, chain 2 of 2): as the sequence (P01137 30-390 limits assumed, chain 2 of 2) above
T4 sequence (Q14392 20-627 limits assumed, chain 1 of 2): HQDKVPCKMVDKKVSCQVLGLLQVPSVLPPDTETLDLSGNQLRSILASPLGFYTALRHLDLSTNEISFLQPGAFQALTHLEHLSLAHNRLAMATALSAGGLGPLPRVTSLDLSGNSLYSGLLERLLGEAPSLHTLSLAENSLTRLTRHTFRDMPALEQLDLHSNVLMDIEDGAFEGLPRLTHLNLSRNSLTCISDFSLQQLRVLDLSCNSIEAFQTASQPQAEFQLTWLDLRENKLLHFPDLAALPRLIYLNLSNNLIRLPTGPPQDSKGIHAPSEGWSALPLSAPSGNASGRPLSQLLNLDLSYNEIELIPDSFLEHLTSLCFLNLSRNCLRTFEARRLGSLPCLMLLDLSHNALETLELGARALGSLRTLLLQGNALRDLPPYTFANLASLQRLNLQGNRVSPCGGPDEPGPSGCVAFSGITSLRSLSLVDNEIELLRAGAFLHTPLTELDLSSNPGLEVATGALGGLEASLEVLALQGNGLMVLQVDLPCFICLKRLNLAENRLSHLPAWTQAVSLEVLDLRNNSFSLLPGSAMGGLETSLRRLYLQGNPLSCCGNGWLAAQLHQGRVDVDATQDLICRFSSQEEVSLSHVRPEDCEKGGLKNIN
T4 sequence (P01137 30-390 limits assumed, chain 2 of 2): as the sequence (P01137 30-390 limits assumed, chain 2 of 2) above
T3 sequence (Q86YC3 19-650 limits assumed, chain 1 of 2): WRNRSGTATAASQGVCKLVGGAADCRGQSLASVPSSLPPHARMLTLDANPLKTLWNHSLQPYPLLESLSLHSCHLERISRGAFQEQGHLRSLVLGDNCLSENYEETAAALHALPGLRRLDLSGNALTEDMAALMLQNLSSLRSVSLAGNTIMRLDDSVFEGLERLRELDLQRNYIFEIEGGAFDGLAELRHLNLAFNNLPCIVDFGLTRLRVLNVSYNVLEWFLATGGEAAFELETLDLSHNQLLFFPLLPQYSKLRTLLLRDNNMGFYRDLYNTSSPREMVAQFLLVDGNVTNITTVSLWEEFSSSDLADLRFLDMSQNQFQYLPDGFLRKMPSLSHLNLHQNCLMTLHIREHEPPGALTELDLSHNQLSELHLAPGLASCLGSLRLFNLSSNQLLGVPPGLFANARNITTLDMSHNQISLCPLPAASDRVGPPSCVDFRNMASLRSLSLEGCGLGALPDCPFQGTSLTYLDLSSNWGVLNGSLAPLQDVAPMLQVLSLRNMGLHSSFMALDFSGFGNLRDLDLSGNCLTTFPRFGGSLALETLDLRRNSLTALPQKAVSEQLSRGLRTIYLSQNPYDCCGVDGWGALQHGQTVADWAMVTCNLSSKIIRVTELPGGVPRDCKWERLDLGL
T3 sequence (P01137 30-390 limits assumed, chain 2 of 2): as the sequence (P01137 30-390 limits assumed, chain 2 of 2) above

B1: Ab3 (antibody, V domains shown)
VH: EVQLLESGGGLVQPGGSLRLSCAASGFTFRNYAMSWVRQAPGKGLEWVSSISGSGGATYYADSVKGRFTISRDNSKNTLYLQMNSLRAEDTAVYYCARVSSGHWDFDYWGQGTLVTVSS
VL: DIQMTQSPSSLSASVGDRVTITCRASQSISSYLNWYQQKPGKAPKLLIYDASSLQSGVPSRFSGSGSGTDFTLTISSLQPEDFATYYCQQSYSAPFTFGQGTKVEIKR
Regarding B1, the “IC50 (nM), cell-based potency assay, CAGA12 luciferase reporter” value came out at 10.4 nM in experiment [1], 0.981 nM in experiment [2], 0.858 nM in experiment [3] and 24.3 nM in [4]. Besides, the Kd in experiment [5] was determined as 16.2 nM; in experiment [6], 35 nM; in experiment [7], 13 nM; in experiment [8], 28 nM; in [9] it was 0.459 nM; in [10], 8.52 nM. For the same molecule, the Kd in experiment [11] turned out to be 0.47 nM; in [12], 17.3 nM.

Values taken from patent publication US20210340238A1 (SCHOLAR ROCK, published 2021).
